Measured values: publication PMC8390497, “A guanidine-degrading enzyme controls genomic stability of ethylene-producing cyanobacteria” (Nature Communications, 2021)

Substrate: N=C(N)N
Assay: HPLC guanidine / GC-MS urea quantification, velocity versus guanidine concentration
Type: biochemical, Synechocystis sp. PCC 6803
Details: 20 mM Tris-HCl pH 7.5, 50 mM NaCl, 1 mM MnCl2, 30 °C, His-tagged enzyme, no ATP

B1: Sll1077-His (Synechocystis sp. PCC 6803 substr. Kazusa) (protein)
chain: MSDATPFRPPSEAEEALIKETRLPLTGWQQEVDQGLTYGLEAAASIKDRSIPTFSRGELPHYAGINTFMKAPYLEDVREVGKYDVAIVGVPHDSGTTYRPGTRFGPQGIRRISALYTPYNFEMGVDLREQISLCDVGDIFTIPANNEKSFDQISKGIAHIFSSGAFPIILGGDHSIGFPTVRGICRHLGDKKVGIIHFDRHVDTQETDLDERMHTCPWFHATNMANAPAKNLVQLGIGGWQVPRQGVKVCRERATNILTVTDITEMSLDAAADFAIARATDGTDCVWISFDIDCIDAGFVPGTGWPEPGGLLPREALYLLKRIIRETNVCGMEVVEVSPPYDISDMTSLMATRVICDTMAHLVVSGQLPRTEKPAYIHAEANMAVDEPWQ
notes: full-length with C-terminal 6xHis tag kept (no XhoI linker, pPB316), overexpressed in and purified from Synechocystis 6803 strain PB816W
- Km: 5.3 ± 1.2 mM
- kcat: 0.040 ± 0.010 s⁻¹
